Results reported in IntAct's records for PubMed 15361138.

B1: Transcription factor MYB75 (Arabidopsis thaliana (Mouse-ear cress)), Q9FE25 (parent)
chain: MEGSSKGLRKGAWTTEEDSLLRQCINKYGEGKWHQVPVRAGLNRCRKSCRLRWLNYLKPSIKRGKLSSDEVDLLLRLHRLLGNRWSLIAGRLPGRTANDVKNYWNTHLSKKHEPCCKIKMKKRDITPIPTTPALKNNVYKPRPRSFTVNNDCNHLNAPPKVDVNPPCLGLNINNVCDNSIIYNKDKKKDQLVNNLIDGDNMWLEKFLEESQEVDILVPEATTTEKGDTLAFDVDQLWSLFDGETVKFD
partner: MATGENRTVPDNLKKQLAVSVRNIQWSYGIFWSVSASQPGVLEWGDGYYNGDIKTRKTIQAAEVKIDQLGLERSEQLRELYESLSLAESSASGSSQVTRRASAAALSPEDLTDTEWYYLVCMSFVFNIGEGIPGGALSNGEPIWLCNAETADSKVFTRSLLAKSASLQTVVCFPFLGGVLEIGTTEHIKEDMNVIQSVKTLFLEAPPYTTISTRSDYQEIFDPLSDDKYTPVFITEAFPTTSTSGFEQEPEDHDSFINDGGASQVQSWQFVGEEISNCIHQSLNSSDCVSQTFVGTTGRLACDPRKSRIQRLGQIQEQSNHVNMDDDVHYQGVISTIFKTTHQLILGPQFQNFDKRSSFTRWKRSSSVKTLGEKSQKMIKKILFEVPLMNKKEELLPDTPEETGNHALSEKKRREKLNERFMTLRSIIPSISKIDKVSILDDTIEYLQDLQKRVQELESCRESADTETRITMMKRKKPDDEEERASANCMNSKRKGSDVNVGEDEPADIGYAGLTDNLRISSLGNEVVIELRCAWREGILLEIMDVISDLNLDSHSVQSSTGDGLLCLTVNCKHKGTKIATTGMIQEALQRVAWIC

Variants of: B1
Conditions: with egl1_arath BHLH2, Q9CAD0
MEGSSKGLRKGAWTTEEDSLLRQCINKYGEGKWHQVPVRAGLNRCRKSCRLRWLNYLKPSIKRGKLSSDEVDLLLRLHSLLGNRWSLIAGRLPGRTANDVKNYWNTHLSKKHEPCCKIKMKKRDITPIPTTPALKNNVYKPRPRSFTVNNDCNHLNAPPKVDVNPPCLGLNINNVCDNSIIYNKDKKKDQLVNNLIDGDNMWLEKFLEESQEVDILVPEATTTEKGDTLAFDVDQLWSLFDGETVKFD [R79S] was tested, and the “effect of a mutation on the interaction” value was “decreasing interaction”.
MEGSSKGLRKGAWTTEEDSLLRQCINKYGEGKWHQVPVRAGLNRCRKSCRLRWLNYLKPSIKRGKLSSDEVDLLLRLHRALGNRWSLIAGRLPGRTANDVKNYWNTHLSKKHEPCCKIKMKKRDITPIPTTPALKNNVYKPRPRSFTVNNDCNHLNAPPKVDVNPPCLGLNINNVCDNSIIYNKDKKKDQLVNNLIDGDNMWLEKFLEESQEVDILVPEATTTEKGDTLAFDVDQLWSLFDGETVKFD [L80A] was tested, and the “effect of a mutation on the interaction” value was “decreasing interaction”.
MEGSSKGLRKGAWTTEEDSLLRQCINKYGEGKWHQVPVRAGLNRCRKSCRLRWLNYLKPSIKRGKLSSDEVDLLLELHRLLGNRWSLIAGRLPGRTANDVKNYWNTHLSKKHEPCCKIKMKKRDITPIPTTPALKNNVYKPRPRSFTVNNDCNHLNAPPKVDVNPPCLGLNINNVCDNSIIYNKDKKKDQLVNNLIDGDNMWLEKFLEESQEVDILVPEATTTEKGDTLAFDVDQLWSLFDGETVKFD [R76E] was tested, and the “effect of a mutation on the interaction” value was “decreasing interaction”.
In the case of MEGSSKGLRKGAWTTEEDSLLRQCINKYGEGKWHQVPVRAGLNRCRKSCRLRWLNYLKPSIKRGKLSSDEVDLLLKLHRLLGNRWSLIAGRLPGRTANDVKNYWNTHLSKKHEPCCKIKMKKRDITPIPTTPALKNNVYKPRPRSFTVNNDCNHLNAPPKVDVNPPCLGLNINNVCDNSIIYNKDKKKDQLVNNLIDGDNMWLEKFLEESQEVDILVPEATTTEKGDTLAFDVDQLWSLFDGETVKFD [R76K], the “effect of a mutation on the interaction” value is reported as “decreasing interaction”.
For MEGSSKGLRKGAWTTEEDSLLRQCINKYGEGKWHQVPVRAGLNRCRKSCRLRWLNYLKPSIKRGKLSSDEVDILLRLHRLLGNRWSLIAGRLPGRTANDVKNYWNTHLSKKHEPCCKIKMKKRDITPIPTTPALKNNVYKPRPRSFTVNNDCNHLNAPPKVDVNPPCLGLNINNVCDNSIIYNKDKKKDQLVNNLIDGDNMWLEKFLEESQEVDILVPEATTTEKGDTLAFDVDQLWSLFDGETVKFD [L73I], the “effect of a mutation on the interaction” value was “decreasing interaction”.
For MEGSSKGLRKGAWTTEEDSLLRQCINKYGEGKWHQVPVRAGLNRCRKSCRLRWLNYLKPSIKRGKLSSDEVDLLLRLHRLLGNRWSLIAGALPGRTANDVKNYWNTHLSKKHEPCCKIKMKKRDITPIPTTPALKNNVYKPRPRSFTVNNDCNHLNAPPKVDVNPPCLGLNINNVCDNSIIYNKDKKKDQLVNNLIDGDNMWLEKFLEESQEVDILVPEATTTEKGDTLAFDVDQLWSLFDGETVKFD [R91A], the “effect of a mutation on the interaction” value was “decreasing interaction”.
In the case of MEGSSKGLRKGAWTTEEDSLLRQCINKYGEGKWHQVPVRAGLNRCRKSCRLRWLNYLKPSIKRGKLSSDEVDLLLRLHRLLGNRWSLIAGDLPGRTANDVKNYWNTHLSKKHEPCCKIKMKKRDITPIPTTPALKNNVYKPRPRSFTVNNDCNHLNAPPKVDVNPPCLGLNINNVCDNSIIYNKDKKKDQLVNNLIDGDNMWLEKFLEESQEVDILVPEATTTEKGDTLAFDVDQLWSLFDGETVKFD [R91D], the “effect of a mutation on the interaction” value is reported as “decreasing interaction”.
